Data as given in article PMC8906176.

Molecular target: C4-AM2 monobody
Experiment: BLI

Substance | Kd [nM]
SARS-CoV-2 S protein receptor-binding domain, Alpha variant (B.1.1.7) (from UniProt P0DTC2) (domain or fragment) | < 0.01
SARS-CoV-2 S protein receptor-binding domain, Beta variant (B.1.351) (from UniProt P0DTC2) (domain or fragment) | 6.3
